Source: paper PMC11877715, “NONO regulates m^5C modification and alternative splicing of PTEN mRNAs to drive gastric cancer progression” (Journal of Experimental & Clinical Cancer Research : CR, 2025)

Molecular target: T1, purified HA-NSUN2 (human, UniProt Q08J23 1-767)
T1 construct: NSUN2, human, in p-GEX-4T-1; The plasmid is called GST-HA-NSUN2, the protein in the assay HA-NSUN2; also called GST-HA-NSUN2; HA-NSUN2 fusion protein; source: E. coli, purified (prepared 'as described previously')
Assay: pull-down; Called GST pull-down; about 100 µg GST-Flag-NONO and HA-NSUN2 incubated overnight with anti-Flag antibody at 4 °C, protein A/G magnetic beads 1 h at room temperature, low-pH elution, Western blot
Conditions: both partners purified

T1 sequence (Q08J23 whole entry, the tested form may be a part): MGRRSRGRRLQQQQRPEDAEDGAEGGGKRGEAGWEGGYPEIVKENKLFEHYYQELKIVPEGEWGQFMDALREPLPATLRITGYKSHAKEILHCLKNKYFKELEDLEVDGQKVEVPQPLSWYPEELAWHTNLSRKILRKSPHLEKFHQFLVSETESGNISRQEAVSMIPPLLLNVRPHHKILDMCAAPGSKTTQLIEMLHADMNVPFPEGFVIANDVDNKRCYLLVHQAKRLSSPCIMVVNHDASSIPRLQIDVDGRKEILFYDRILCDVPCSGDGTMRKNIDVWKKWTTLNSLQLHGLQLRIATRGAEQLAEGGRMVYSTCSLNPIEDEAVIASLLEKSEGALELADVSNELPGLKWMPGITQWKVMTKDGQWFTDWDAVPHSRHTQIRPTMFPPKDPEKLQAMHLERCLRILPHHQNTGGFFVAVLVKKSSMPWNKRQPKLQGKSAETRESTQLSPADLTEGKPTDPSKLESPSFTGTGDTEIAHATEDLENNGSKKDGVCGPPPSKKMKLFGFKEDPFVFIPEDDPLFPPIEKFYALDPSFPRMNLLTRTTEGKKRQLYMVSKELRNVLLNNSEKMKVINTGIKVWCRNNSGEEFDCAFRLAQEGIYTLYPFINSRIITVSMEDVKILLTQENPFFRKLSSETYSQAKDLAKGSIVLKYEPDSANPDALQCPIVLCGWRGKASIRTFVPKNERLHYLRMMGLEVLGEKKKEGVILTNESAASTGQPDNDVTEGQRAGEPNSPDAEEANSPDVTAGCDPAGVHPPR

binding result: binds
B1: GST-Flag-NONO (natural protein, human, UniProt Q15233 1-471, looked up)
chain: MQSNKTFNLEKQNHTPRKHHQHHHQQQHHQQQQQQPPPPPIPANGQQASSQNEGLTIDLKNFRKPGEKTFTQRSRLFVGNLPPDITEEEMRKLFEKYGKAGEVFIHKDKGFGFIRLETRTLAEIAKVELDNMPLRGKQLRVRFACHSASLTVRNLPQYVSNELLEEAFSVFGQVERAVVIVDDRGRPSGKGIVEFSGKPAARKALDRCSEGSFLLTTFPRPVTVEPMDQLDDEEGLPEKLVIKNQQFHKEREQPPRFAQPGSFEYEYAMRWKALIEMEKQQQDQVDRNIKEAREKLEMEMEAARHEHQVMLMRQDLMRRQEELRRMEELHNQEVQKRKQLELRQEEERRRREEEMRRQQEEMMRRQQEGFKGTFPDAREQEIRMGQMAMGGAMGINNRGAMPPAPVPAGTPAPPGPATMMPDGTLGLTPPTTERFGQAATMEGIGAIGGTPPAFNRAAPGAEFAPNKRRRY
notes: NONO, human, FL, in p-GEX-4T-1; also called GST-tagged Flag-NONO; FLAG-NONO-FL in p-GEX-4T-1; source: E. coli, purified (prepared 'as described previously')
